This is an account of results in the supplement of paper PMC5998384.

Data set [1] relates to HeLa Kyoto. In words: solubility in G1/S (NP-40 vs SDS abundance) (log2 ratio); higher = more soluble. The settings on record: cell cycle stage: G1/S.
Data set [2] deals with HeLa Kyoto. Nature of the data set: solubility change mitosis vs G1/S (difference of NP-40 vs SDS log2 ratios) (log2 ratio difference); higher = more soluble in mitosis.
Data set [3] deals with HeLa Kyoto. In words: melting temperature (median over replicates), in situ; higher = more thermally stable.
Data set [4] concerns HeLa Kyoto. In words: thermal stability score vs G1/S (z-score of summed log2 fold changes over temperatures); higher = more thermally stable than in G1/S.
Setting [5] is: cell cycle stage: early G1 (4.5 h after nocodazole release).
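For melting temperature (median over replicates), in situ in this document: HeLa Kyoto cells synchronized by double thymidine or nocodazole block, proteins quantified by TMT10plex mass spectrometry, three independent biological replicates.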
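For solubility change mitosis vs G1/S (difference of NP-40 vs SDS log2 ratios) in this document: synchronized HeLa Kyoto cells (double thymidine block for G1/S, nocodazole release for mitosis), protein amounts in NP-40 versus SDS lysates quantified by mass spectrometry, three biological replicates.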
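For solubility in G1/S (NP-40 vs SDS abundance) in this document: HeLa Kyoto cells arrested at G1/S by double thymidine block, proteins quantified by TMT10plex mass spectrometry in mild NP-40 versus SDS extracts, three biological replicates.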
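For thermal stability score vs G1/S (z-score of summed log2 fold changes over temperatures) in this document: synchronized HeLa Kyoto cells, proteins quantified by TMT10plex mass spectrometry, three biological replicates, mitosis taken 0.5 h after nocodazole release, G1/S directly after double thymidine block.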

Consider “MATDSWALAVDEQEAAVKSMTNLQIKEEKVKADTNGIIKTSTTAEKTDEEEKEDRAAQSLLNKLIRSNLVDNTNQVEVLQRDPNSPLYSVKSFEELRLKPQLLQGVYAMGFNRPSKIQENALPMMLAEPPQNLIAQSQSGTGKTAAFVLAMLSRVEPSDRYPQCLCLSPTYELALQTGKVIEQMGKFYPELKLAYAVRGNKLERGQKISEQIVIGTPGTVLDWCSKLKFIDPKKIKVFVLDEADVMIATQGHQDQSIRIQRMLPRNCQMLLFSATFEDSVWKFAQKVVPDPNVIKLKREEETLDTIKQYYVLCSSRDEKFQALCNLYGAITIAQAMIFCHTRKTASWLAAELSKEGHQVALLSGEMMVEQRAAVIERFREGKEKVLVTTNVCARGIDVEQVSVVINFDLPVDKDGNPDNETYLHRIGRTGRFGKRGLAVNMVDSKHSMNILNRIQEHFNKKIERLDTDDLDEIEKIAN [DDX19A]”, for which, in data set [1], the “solubility in G1/S (log2)” value was 0.212. The “solubility change mitosis (log2)” value in data set [2] is -0.05. The melting temperature in data set [3] (cell cycle stage: G1/S) and in data set [3] (cell cycle stage: mitosis) was 49.9 °C throughout. The thermal stability score in data set [4] (setting [5]) was 1.53; in data set [4] (cell cycle stage: mitosis), 0.923.
As to TLN2, in data set [1], the “solubility in G1/S (log2)” value is -0.145. Further, the “solubility change mitosis (log2)” value in data set [2] is 0.0273. Also, the melting temperature in data set [3] (cell cycle stage: G1/S) amounted to 50.5 °C; in data set [3] (cell cycle stage: mitosis), 50.4 °C. Moreover, the thermal stability score in data set [4] (setting [5]) was -0.491; in data set [4] (cell cycle stage: mitosis), -0.643.
Turning to TRIOBP, the “solubility in G1/S (log2)” value in data set [1] is 0.139. The “solubility change mitosis (log2)” value in data set [2] turned out to be 0.0573. The melting temperature in data set [3] (cell cycle stage: G1/S) came out at 49.1 °C; in data set [3] (cell cycle stage: mitosis), 49.3 °C. Further, the thermal stability score in data set [4] (setting [5]) is 0.418; in data set [4] (cell cycle stage: mitosis), 1.17.
Regarding “MFIKGRAPRAPPRERRRATRGGLRQVVAPPRALGSTSRPHFRRASVCRRRCRKSGGLLAASRKMAAAAVNGAAGFSSSGPAATSGAVLQAATGMYEQLKGEWNRKSPNLSKCGEELGRLKLVLLELNFLPTTGTKLTKQQLILARDILEIGAQWSILRKDIPSFERYMAQLKCYYFDYKEQLPESAYMHQLLGLNLLFLLSQNRVAEFHTELERLPAKDIQTNVYIKHPVSLEQYLMEGSYNKVFLAKGNIPAESYTFFIDILLDTIRDEIAGCIEKAYEKILFTEATRILFFNTPKKMTDYAKKRGWVLGPNNYYSFASQQQKPEDTTIPSTELAKQVIEYARQLEMIV [PSMD8]”, in data set [1], the “solubility in G1/S (log2)” value came to 0.278. For the same substance, in data set [2], the “solubility change mitosis (log2)” value came out at 0.0108. Further, the melting temperature came to 53.4 °C in data set [3] (cell cycle stage: G1/S) and 54.5 °C in data set [3] (cell cycle stage: mitosis). In addition, the thermal stability score was -1.02 in data set [4] (setting [5]) and -0.0502 in data set [4] (cell cycle stage: mitosis).
“MAGSSTGGGGVGETKVIYHLDEEETPYLVKIPVPAERITLGDFKSVLQRPAGAKYFFKSMDQDFGVVKEEISDDNARLPCFNGRVVSWLVSSDNPQPEMAPPVHEPRAELAPPAPPLPPLPPERTSGIGDSRPPSFHPNVSSSHENLEPETETESVVSLRRERPRRRDSSEHGAGGHRTGGPSRLERHLAGYESSSTLMTSELESTSLGDSDEEDTMSRFSSSTEQSSASRLLKRHRRRRKQRPPRLERTSSFSSVTDSTMSLNIITVTLNMEKYNFLGISIVGQSNERGDGGIYIGSIMKGGAVAADGRIEPGDMLLQVNDMNFENMSNDDAVRVLRDIVHKPGPIVLTVAKCWDPSPQAYFTLPRNEPIQPIDPAAWVSHSAALTGTFPAYPGSSSMSTITSGSSLPDGCEGRGLSVHTDMASVTKAMAAPESGLEVRDRMWLKITIPNAFLGSDVVDWLYHHVEGFPERREARKYASGLLKAGLIRHTVNKITFSEQCYYVFGDLSGGCESYLVNLSLNDNDGSSGASDQDTLAPLPGATPWPLLPTFSYQYPAPHPYSPQPPPYHELSSYTYGGGSASSQHSEGSRSSGSTRSDGGAGRTGRPEERAPESKSGSGSESEPSSRGGSLRRGGEASGTSDGGPPPSRGSTGGAPNLRAHPGLHPYGPPPGMALPYNPMMVVMMPPPPPPVPPAVQPPGAPPVRDLGSVPPELTASRQSFHMAMGNPSEFFVDVM [DVL2]”: in data set [1], the “solubility in G1/S (log2)” value was -0.00889. The “solubility change mitosis (log2)” value in data set [2] was -0.0693. Also, the melting temperature was 47 °C in data set [3] (cell cycle stage: G1/S) and 48.7 °C in data set [3] (cell cycle stage: mitosis). The thermal stability score stood at 0.348 in data set [4] (setting [5]) and 0.985 in data set [4] (cell cycle stage: mitosis).
As to “MESESESGAAADTPPLETLSFHGDEEIIEVVELDPGPPDPDDLAQEMEDVDFEEEEEEEGNEEGWVLEPQEGVVGSMEGPDDSEVTFALHSASVFCVSLDPKTNTLAVTGGEDDKAFVWRLSDGELLFECAGHKDSVTCAGFSHDSTLVATGDMSGLLKVWQVDTKEEVWSFEAGDLEWMEWHPRAPVLLAGTADGNTWMWKVPNGDCKTFQGPNCPATCGRVLPDGKRAVVGYEDGTIRIWDLKQGSPIHVLKGTEGHQGPLTCVAANQDGSLILTGSVDCQAKLVSATTGKVVGVFRPETVASQPSLGEGEESESNSVESLGFCSVMPLAAVGYLDGTLAIYDLATQTLRHQCQHQSGIVQLLWEAGTAVVYTCSLDGIVRLWDARTGRLLTDYRGHTAEILDFALSKDASLVVTTSGDHKAKVFCVQRPDR [AAMP]”, the “solubility in G1/S (log2)” value in data set [1] was -0.15. In addition, the “solubility change mitosis (log2)” value in data set [2] was -0.112. The melting temperature in data set [3] (cell cycle stage: G1/S) amounted to 51.3 °C; in data set [3] (cell cycle stage: mitosis), 51.6 °C. The values for the thermal stability score in data set [4] (setting [5]) and in data set [4] (cell cycle stage: mitosis) were -1.15 and -3.66, respectively.
